Biological target: Mre11-Rad50 (hMR) WT-WT;Nbs1 (Homo sapiens;Homo sapiens, UniProt Q92878;P49959;O60934 1-1312;1-708;1-754, |)
Test: EMSA

Chain of Mre11-Rad50 (hMR) WT-WT;Nbs1 (Q92878 whole entry, chain 1 of 3): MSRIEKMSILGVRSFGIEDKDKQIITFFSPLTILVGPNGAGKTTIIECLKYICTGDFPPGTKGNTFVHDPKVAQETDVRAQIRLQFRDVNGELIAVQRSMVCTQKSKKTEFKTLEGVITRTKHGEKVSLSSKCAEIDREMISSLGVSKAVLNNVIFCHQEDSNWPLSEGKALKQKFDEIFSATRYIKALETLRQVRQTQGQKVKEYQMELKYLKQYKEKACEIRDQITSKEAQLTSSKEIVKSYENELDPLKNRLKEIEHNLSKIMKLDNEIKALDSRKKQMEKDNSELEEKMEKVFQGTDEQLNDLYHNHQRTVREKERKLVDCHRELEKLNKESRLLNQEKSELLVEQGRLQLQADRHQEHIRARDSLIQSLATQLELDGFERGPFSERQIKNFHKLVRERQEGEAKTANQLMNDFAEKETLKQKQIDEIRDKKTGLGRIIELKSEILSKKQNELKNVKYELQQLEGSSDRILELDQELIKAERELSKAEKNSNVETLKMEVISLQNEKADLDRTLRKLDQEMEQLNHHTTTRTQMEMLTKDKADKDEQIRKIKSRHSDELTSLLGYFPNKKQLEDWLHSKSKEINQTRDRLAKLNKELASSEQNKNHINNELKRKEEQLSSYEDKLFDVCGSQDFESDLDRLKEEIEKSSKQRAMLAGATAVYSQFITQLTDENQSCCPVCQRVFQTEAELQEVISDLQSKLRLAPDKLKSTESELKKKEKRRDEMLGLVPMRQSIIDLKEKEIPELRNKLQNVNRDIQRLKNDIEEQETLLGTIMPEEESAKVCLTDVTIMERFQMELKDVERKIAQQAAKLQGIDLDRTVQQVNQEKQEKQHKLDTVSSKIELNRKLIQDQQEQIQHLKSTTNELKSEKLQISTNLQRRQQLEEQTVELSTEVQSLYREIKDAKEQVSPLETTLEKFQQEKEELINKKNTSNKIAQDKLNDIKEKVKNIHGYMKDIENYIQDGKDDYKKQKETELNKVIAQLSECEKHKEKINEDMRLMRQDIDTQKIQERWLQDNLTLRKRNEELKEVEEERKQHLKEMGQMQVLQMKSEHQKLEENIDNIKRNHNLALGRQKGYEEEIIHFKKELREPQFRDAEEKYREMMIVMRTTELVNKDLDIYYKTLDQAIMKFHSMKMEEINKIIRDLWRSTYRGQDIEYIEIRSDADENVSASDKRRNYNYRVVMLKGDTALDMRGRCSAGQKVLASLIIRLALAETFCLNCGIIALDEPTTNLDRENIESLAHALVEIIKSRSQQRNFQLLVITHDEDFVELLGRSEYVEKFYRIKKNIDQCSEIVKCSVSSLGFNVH
Chain of Mre11-Rad50 (hMR) WT-WT;Nbs1 (P49959 whole entry, chain 2 of 3): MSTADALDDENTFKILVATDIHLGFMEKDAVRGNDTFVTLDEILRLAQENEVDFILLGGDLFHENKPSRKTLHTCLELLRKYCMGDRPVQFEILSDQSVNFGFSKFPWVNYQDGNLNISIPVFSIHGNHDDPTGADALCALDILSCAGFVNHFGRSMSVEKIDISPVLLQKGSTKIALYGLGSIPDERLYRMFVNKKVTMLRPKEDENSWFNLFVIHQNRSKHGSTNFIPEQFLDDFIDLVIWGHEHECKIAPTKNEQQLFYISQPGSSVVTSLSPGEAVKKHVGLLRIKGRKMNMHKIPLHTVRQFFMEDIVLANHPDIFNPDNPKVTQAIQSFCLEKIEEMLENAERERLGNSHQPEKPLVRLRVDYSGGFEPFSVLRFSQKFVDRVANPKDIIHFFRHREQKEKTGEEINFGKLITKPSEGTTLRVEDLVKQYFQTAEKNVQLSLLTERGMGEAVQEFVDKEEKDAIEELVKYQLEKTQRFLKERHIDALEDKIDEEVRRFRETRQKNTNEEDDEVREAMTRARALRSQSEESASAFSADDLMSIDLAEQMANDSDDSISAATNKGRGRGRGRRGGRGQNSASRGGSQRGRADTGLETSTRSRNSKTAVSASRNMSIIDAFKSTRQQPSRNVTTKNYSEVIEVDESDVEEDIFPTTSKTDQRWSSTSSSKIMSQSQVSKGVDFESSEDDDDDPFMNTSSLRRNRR
Chain of Mre11-Rad50 (hMR) WT-WT;Nbs1 (O60934 whole entry, chain 3 of 3): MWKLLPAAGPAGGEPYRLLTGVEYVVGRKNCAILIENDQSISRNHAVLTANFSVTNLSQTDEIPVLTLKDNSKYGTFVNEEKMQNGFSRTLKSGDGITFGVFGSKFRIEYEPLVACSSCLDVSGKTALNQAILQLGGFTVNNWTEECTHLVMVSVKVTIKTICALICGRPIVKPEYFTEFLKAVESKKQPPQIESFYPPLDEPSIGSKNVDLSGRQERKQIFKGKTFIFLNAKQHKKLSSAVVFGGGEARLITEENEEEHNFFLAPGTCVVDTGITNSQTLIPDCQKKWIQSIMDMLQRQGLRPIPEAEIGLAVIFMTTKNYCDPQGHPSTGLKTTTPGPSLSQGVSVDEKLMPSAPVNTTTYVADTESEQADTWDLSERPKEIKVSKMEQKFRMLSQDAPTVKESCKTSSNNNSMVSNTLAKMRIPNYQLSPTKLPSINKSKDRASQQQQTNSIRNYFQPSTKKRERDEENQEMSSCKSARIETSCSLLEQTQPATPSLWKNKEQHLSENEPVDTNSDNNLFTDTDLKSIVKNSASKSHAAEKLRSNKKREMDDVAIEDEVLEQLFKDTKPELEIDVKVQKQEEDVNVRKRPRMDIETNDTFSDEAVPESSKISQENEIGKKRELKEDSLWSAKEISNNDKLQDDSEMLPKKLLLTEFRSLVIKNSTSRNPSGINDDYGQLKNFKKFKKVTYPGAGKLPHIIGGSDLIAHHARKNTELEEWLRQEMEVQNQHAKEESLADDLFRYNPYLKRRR

B1: TP4536/TP4559 (dsDNA)
DNA 1: TGGGTCAACGTGGGCAAAGATGTCCTAGCAATGTAATCGTCTATGACGTT
DNA 2: AACGTCATAGACGATTACATTGCTAGGACATCTTTGCCCACGTTGACCCA
modifications: 5' biotin-TEG on strand 1; five phosphorothioate bonds at 3' end of strand 2 (G*A*C*C*C*A)
binding result: binds

Source: publication PMC5435944
